B2: full-length intracellular domain of the p55-TNF-R (p55IC) (receptor)
chain: RYQRWKSKLYSIVCGKSTPEKEGELEGTTTKPLAPNPSFSPTPGFTPTLGFSPVPSSTFTSSSTYTPGDCPNFAAPRREVAPPYQGADPILATALASDPIPNPLQKWEDSAHKPQSLDTDDPATLYAVVENVPPLRWKEFVRRLGLSDHEIDRLELQNGRCLREAQYSMLATWRRRTPRREATLELLGRVLRDMDLLGCLEDIEEALCGPAALPPAPSLLR
notes: the GAL4 part is not written as a piece; also called pGBT9-IC55; IC55

Assays:
[1] = molecular target: B2; test: yeast two-hybrid (SFY526), various baits
[2] = molecular target: T1, 55.11 construct 309-680 (C-terminal truncation) (human, UniProt Q13200 318-689); test: yeast two-hybrid beta-galactosidase filter assay (SFY526), FIG. 13
T1 construct: GAL4 part not written
T1 sequence (Q13200 318-689): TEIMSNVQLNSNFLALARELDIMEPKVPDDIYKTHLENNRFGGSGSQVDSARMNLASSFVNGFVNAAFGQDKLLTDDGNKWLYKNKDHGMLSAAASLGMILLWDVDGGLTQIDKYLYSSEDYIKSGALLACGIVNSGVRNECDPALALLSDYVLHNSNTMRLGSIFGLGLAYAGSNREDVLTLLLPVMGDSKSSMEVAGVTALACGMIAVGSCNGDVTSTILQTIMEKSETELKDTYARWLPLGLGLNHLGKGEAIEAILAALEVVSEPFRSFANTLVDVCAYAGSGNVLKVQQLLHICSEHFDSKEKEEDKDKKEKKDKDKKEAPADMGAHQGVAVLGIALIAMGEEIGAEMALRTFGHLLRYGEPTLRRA

[3] = molecular target: T2, 55.11 protein, partial (residues 309-900), VP16 activation-domain hybrid (human, UniProt Q13200 318-899); test: as above
T2 construct: the VP16 part is not written; also called VP16AD
T2 sequence (Q13200 other isoform, or with tags, fused parts or gaps): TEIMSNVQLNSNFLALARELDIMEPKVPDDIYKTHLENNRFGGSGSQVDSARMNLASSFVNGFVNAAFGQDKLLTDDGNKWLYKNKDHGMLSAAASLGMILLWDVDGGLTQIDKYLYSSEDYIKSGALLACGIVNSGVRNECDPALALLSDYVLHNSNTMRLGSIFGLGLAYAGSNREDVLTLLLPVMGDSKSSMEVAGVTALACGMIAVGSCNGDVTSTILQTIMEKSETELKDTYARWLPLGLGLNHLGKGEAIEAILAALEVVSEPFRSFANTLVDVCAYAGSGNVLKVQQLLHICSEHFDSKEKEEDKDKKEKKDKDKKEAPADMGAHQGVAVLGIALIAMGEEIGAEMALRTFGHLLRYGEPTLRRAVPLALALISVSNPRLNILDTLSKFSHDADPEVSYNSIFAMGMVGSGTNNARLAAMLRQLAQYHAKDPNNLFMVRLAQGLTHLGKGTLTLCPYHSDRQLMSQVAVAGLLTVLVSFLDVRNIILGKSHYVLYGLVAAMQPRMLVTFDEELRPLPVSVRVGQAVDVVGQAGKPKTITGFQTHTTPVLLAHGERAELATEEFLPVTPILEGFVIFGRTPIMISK

[4] = molecular target: T3, 55.11 construct 457-900 (N-terminal truncation) (human, UniProt Q13200 466-899); test: as above
T3 construct: GAL4 part not written
T3 sequence (Q13200 other isoform, or with tags, fused parts or gaps): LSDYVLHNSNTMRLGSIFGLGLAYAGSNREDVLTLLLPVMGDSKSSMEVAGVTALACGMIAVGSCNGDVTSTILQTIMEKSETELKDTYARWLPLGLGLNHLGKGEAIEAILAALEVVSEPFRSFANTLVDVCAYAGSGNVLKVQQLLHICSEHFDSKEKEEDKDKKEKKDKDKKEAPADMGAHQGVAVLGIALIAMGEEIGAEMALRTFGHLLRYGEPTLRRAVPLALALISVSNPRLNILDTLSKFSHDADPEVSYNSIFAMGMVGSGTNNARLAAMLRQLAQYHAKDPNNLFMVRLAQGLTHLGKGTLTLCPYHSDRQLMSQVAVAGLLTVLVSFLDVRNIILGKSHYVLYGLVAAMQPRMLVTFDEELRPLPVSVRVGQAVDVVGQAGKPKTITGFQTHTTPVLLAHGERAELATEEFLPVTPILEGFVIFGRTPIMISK

[5] = molecular target: T4, 55.11 protein, partial (residues 309-900, as originally isolated), GAL4 activation-domain hybrid (human, UniProt Q13200 318-899); test: yeast two-hybrid, colony colour (lacZ/X-gal)
[6] = molecular target: the molecule itself; test: yeast two-hybrid beta-galactosidase test (FIG. 14)
[7] = molecular target: B2; test: yeast two-hybrid (SFY526), liquid beta-galactosidase assay
[8] = molecular target: T5, pGBT9 (vector alone) (UniProt P04386 1-147); test: as above
T5 construct: Negative control bait; also called empty bait vector; empty Gal4 (pGBT9) vector
T5 sequence (P04386 1-147 limits assumed): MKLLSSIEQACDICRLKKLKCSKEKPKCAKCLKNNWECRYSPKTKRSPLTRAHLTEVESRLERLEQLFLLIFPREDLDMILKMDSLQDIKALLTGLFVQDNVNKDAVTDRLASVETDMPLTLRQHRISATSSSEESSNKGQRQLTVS

[9] = molecular target: T6, lamin (irrelevant protein); test: as above
T6 construct: Two-hybrid control bait; also called pACT-Lamin

[10] = molecular target: T5, pGBT9 (vector alone); test: yeast two-hybrid, colony colour (lacZ/X-gal)
[11] = molecular target: T4, 55.11 protein, partial (residues …); test: yeast two-hybrid beta-galactosidase filter assay (SFY526), FIG. 13

B1: protein encoded by the 230 clone (other)
chain: GPIREAGLAGWLALGCSGPPAEAAGGAGEPWPQHSGKGQLAGRNAWVKKRKAPRENSPGVRSCRASGRASRPHGDPFLLTLPRARHPVTLNVTIQVSLKQRNVRFNTPFRRGEN
notes: 114 amino acid residues; HeLa cDNA clone in pGAD-GH; GAL4 part not written
Q: Does B1 bind [1]?
A: no binding

Q: Does B2 bind [2]?
A: no binding (tested: no development of color within 24 h)

Q: Does B2 bind [3]?
A: binds

Q: Does B2 bind [4]?
A: no binding (tested: no development of color within 24 h)

Q: Does B2 bind [5]?
A: binds

B3: mouse Fas/APO1 intracellular domain (FAS-IC, residues 166-306) (receptor, UniProt P25446 187-327, looked up)
chain: RKYRKRKCWKRRQDDPESRTSSRETIPMNASNLSLSKYIPRIAEDMTIQEAKKFARENNIKEGKIDEIMHDSIQDTAEQKVQLLLCWYQSHGKSDAYQDLIKGLKKAECRRTLDKFQDMVQKDLGKSTPDTGNENEGQCLE
notes: range 166-306; GAL4 hybrid constructs; also called murine FAS-IC; mouse FAS-IC
Q: Does B3 bind [6]?
A: binds

B4: 55.3 (protein fragment 55.3 of the p55IC, residues 277-426) (receptor)
chain: NFAAPRREVAPPYQGADPILATALASDPIPNPLQKWEDSAHKPQSLDTDDPATLYAVVENVPPLRWKEFVRRLGLSDHEIDRLELQNGRCLREAQYSMLATWRRRTPRREATLELLGRVLRDMDLLGCLEDIEEALCGPAALPPAPSLLR
Q: For B4, which “Lac Z Activity in Liquid Culture Assay” value [7] is on record?
A: 0.04

Q: What about the “Lac Z Activity in Liquid Culture Assay” value [8] of the same binder?
A: 0

Q: And the “Lac Z Activity in Liquid Culture Assay” value [9]?
A: 0

B5: E19 (p75IC-binding protein encoded by clone E19) (other)
chain: EAAGRERERTLEYAEAHAFKSPSKENKKKDKDMLEDKFKSNNLEREQEQLDRIVKESGGKLTRRLVNSQCEFERRKPDGTTTLGLLHPVDPIVGEPGYCPVRLGMTTGRLQSGVNTLQGFKEDKRNKVTPVLYLELWAPTVLYAPHYDSTFANYQQGLI
notes: HeLa cDNA clone in pGAD-GH; GAL4 part not written
Q: Does B5 bind [1]?
A: no binding

B6: 55.1 (protein fragment 55.1 of the p55IC, residues 328-426, the death domain) (receptor)
chain: ATLYAVVENVPPLRWKEFVRRLGLSDHEIDRLELQNGRCLREAQYSMLATWRRRTPRREATLELLGRVLRDMDLLGCLEDIEEALCGPAALPPAPSLLR
notes: also called death domain of human p55-R
Q: Which “Lac Z Activity in Liquid Culture Assay” value [7] does the source give for B6 here?
A: 0.65

Q: And the “Lac Z Activity in Liquid Culture Assay” value [8]?
A: 0

Q: What about the “Lac Z Activity in Liquid Culture Assay” value [9] of the same binder?
A: 0

Q: Does B6 bind [10]?
A: no binding

B7: p55-IC construct from which both the death domain and a membrane proximal part were deleted (construct 243-328) (receptor)
chain: SFSPTPGFTPTLGFSPVPSSTFTSSSTYTPGDCPNFAAPRREVAPPYQGADPILATALASDPIPNPLQKWEDSAHKPQSLDTDDPA
notes: GAL4 part not written
Q: Does B7 bind [11]?
A: binds

B8: truncated p55-IC from which the death domain had been deleted (construct 206-328) (receptor)
chain: RYQRWKSKLYSIVCGKSTPEKEGELEGTTTKPLAPNPSFSPTPGFTPTLGFSPVPSSTFTSSSTYTPGDCPNFAAPRREVAPPYQGADPILATALASDPIPNPLQKWEDSAHKPQSLDTDDPA
notes: GAL4 part not written
Q: Does B8 bind [11]?
A: binds

B9: C terminally truncated p55-IC (construct 206-308) (receptor)
chain: RYQRWKSKLYSIVCGKSTPEKEGELEGTTTKPLAPNPSFSPTPGFTPTLGFSPVPSSTFTSSSTYTPGDCPNFAAPRREVAPPYQGADPILATALASDPIPNP
notes: GAL4 part not written
Q: Does B9 bind [11]?
A: binds

B10: E3 (p75IC-binding protein encoded by clone E3) (other)
chain: TFKIRMEPDETVKVLKEKIEAEKGRDAFPVAGQKLIYAGKILSDDVPIRDYRIDEKNFVVVMVTKTKAGQGTSAPPEASPTAAPESSTSFPPAPTSGMSHPPPAAREDKSPSEESTPTPEQEPCLZ
notes: GAL4 part not written; for coprecipitation expressed in HeLa cells from pUHD10-3
Q: Does B10 bind [1]?
A: no binding
